Test [1] has as its target T1, human TROP2-his protein (human, UniProt P09758 27-274).
T1 construct: Biotin-labelled in the ELISAs, unlabelled analyte in Biacore; also called biotin-labeled human TROP2-his protein; biotin human Trop2-his
T1 sequence: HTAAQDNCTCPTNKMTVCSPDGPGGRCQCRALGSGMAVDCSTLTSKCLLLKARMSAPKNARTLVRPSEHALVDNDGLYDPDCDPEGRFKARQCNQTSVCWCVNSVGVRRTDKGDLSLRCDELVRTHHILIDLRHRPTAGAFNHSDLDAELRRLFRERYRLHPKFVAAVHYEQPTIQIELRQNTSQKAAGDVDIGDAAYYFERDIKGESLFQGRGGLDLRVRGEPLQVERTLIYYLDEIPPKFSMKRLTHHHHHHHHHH
Put plainly: SPR Biacore, compared with BM2. A general note: Surface plasmon resonance follows binding to a sensor surface in real time, without labels.

For test [2], the target named is T1, human TROP2-his protein. Put plainly: capture ELISA, antibody captured on anti-human IgG Fc coat, biotin human TROP2-his in solution, OD(450-630). As for the experimental part: Plates were washed once with wash buffer (PBS+0.05% v/v Tween-20, PBST) and then blocked with 200 μl/well blocking buffer (5% w/v non-fatty milk in PBST) for 2 hours at 37° C. […] Plates containing captured anti-TROP2 antibodies were incubated with biotin-labeled human TROP2-his protein (prepared in house, SEQ ID NO: 67, 56.7 ng/mL in 2.5% w/v non-fatty milk in PBST, 100 μl/well) for 40 minutes at 37° C., washed 4 times, and incubated with streptavidin conjugated HRP (1:10000 dilution in PBST, Jackson Immuno Research, Cat #016-030-084, 100 μl/well) for 40 minutes at 37° C. After a final wash, plates were incubated with 100 μl/well ELISA substrate TMB (Innoreagents, Cat #TMB-S-002) at room temperature. The reaction was stopped in 3-10 minutes at room temperature with 50 μl/well 1M H₂SO₄, and the absorbance of each well was read on a microplate reader using dual wavelength mode with 450 nm for TMB and 630 nm as the reference wavelength. The OD (450-630) values were plotted against antibody concentration. Data was analyzed using Graphpad Prism software and EC₅₀ values were reported.
For the capture ELISA, AffiniPure Goat Anti-Human IgG, Fcγ fragment specific (Jackson Immuno Research, Cat #109-005-098) was used instead of AffiniPure Goat Anti-Mouse IgG, Fcγ fragment specific, 100 μl/well.

For test [3], the target named is T1, human TROP2-his protein. Put plainly: competitive ELISA: BM1 coated at 1 ug/mL, antibody premixed with biotin human TROP2-his; blocked: binding of TROP2-his to coated BM1 (self-competition). As for the experimental part:
(§1) The mouse anti-TROP2 antibodies were tested for epitope binding in a competitive ELISA assay. […] ELISA plates were washed once with wash buffer (PBS+0.05% v/v Tween-20, PBST) and then blocked with 200 μl blocking buffer (5% w/v non-fatty milk in PBST) for 2 hours at 37° C. While blocking, the anti-TROP2 antibodies or controls were diluted with biotin labeled human TROP2-his protein (SEQ ID NO: 67, 34 ng/mL in 2.5% wA non-fatty milk in PBST), starting at 80 nM with a 5-fold serial dilution, and incubated at room temperature for 40 minutes. After plate washing for 4 times, the antibody/TROP2-his protein mixtures were added to the antibody coated plates, 100 μl per well. After incubation at 37° C. for 40 minutes, plates were washed 4 times again using wash buffer. Then the plates were added and incubated with 100 μl Peroxidase Streptavidin (1:10000 dilution in PBST buffer. Jackson Immunoresearch, Cat #016-030-084) for 40 minutes at 37° C. Plates were washed again using wash buffer. Finally, TMB was added and the reaction was stopped using 1M H₂SO₄. The absorbance of each well was read on a microplate reader using dual wavelength mode with 450 nm for TMB and 630 nm as the reference wavelength, and the OD (450-630) values were plotted against antibody concentration. Data was analyzed using Graphpad Prism software and IC₅₀ values were reported.
(In general: An ELISA detects its analyte on a solid surface through an enzyme-linked reagent.)

Test [4] deals with T1, human TROP2-his protein. Put plainly: competitive ELISA: BM1 coated, antibody premixed with biotin human TROP2-his; blocked: binding of TROP2-his to coated BM1 (self-competition), OD falls from about 1.9 to about 0.05.
Test [5] deals with T1, human TROP2-his protein. Put plainly: SPR Biacore, antibody captured on chip, TROP2-his analyte.
Test [6] deals with T2, cynomolgus TROP2-his protein (cynomolgus monkey, UniProt P09758 27-272 (human entry), limits assumed).
T2 construct: no cleavage site is stated; also called Cynomolgus monkey TROP2-his protein; monkey TROP2
T2 chain: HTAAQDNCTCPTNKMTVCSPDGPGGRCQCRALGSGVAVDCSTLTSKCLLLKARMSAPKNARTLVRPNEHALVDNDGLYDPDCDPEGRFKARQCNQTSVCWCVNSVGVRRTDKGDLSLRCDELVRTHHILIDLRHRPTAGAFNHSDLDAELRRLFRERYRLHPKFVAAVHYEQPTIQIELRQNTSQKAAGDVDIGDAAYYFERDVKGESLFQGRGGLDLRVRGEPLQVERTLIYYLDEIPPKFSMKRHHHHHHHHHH
The description is as above.

Test [7] concerns the target T1, human TROP2-his protein. As to the kind of experiment: competitive ELISA: mouse A1E4F7D4 coated at 2 ug/mL, antibody premixed with biotin human TROP2-his; blocked: binding of TROP2-his to coated A1E4F7D4 (self-competition). As for the experimental part:
as §1

B1: huA1E4F7D4-V16 (antibody, human IgG1, kappa, V domains shown)
VH: QVQLVQSGAEVKKPGASVKVSCKASGYSFTTHWIHWVRQAPGQGLEWIGTIFPSNAYAVYNQKFRDRATMTADTSISTAYIELSRLRSDDTAVYYCARASYFDYWGQGTTVTVSS
VL: EIVLTQSPATLSLSPGERATLSCRASQNIGTSIHWFQQKPGGAPRLLIKYASESISGIPSRFSGSGSGTDFTLTISSLEPEDFAVYYCQHSHSWPFTFGQGTKLEIKR
notes: Positions of the X residues are given in the claims; also called humanized antibody huA1E4F7D4-V16
For the molecule B1, the “fold higher affinity than BM2” value in the test with human TROP2-his protein [1] was above 100 fold.

B2: benchmark (in house prepared sacituzumab) (antibody, human IgG1, kappa, V domains shown)
VH: SVQLQQSGSELKKPGASVKVSCKASGYTFTNYGMNWVKQAPGQGLKWMGWINTYTGEPTYTDDFKGRFAFSLDTSVSTAYLQISSLKADDTAVYFCARGGFGSSYWYFDVWGQGSLVTVSS
VL: DIQLTQSPSSLSASVGDRVSITCKASQDVSIAVAWYQQKPGKAPKLLIYSASYRYTGVPDRFSGSGSGTDFTLTISSLQPEDFAVYYCQQHYITPLTFGAGTKVEIKR
notes: also called BM; BM1
What is called EC50 is the concentration that produces a half-maximal response. The low end stands for greater potency, the high end for weaker potency. The term IC50 denotes the midpoint of a concentration-inhibition curve. With B2, the EC50 with human TROP2-his protein [2] came to 0.357 nM. Further, the IC50 was determined as 0.632 nM with human TROP2-his protein [3] and 0.88 nM in the test with human TROP2-his protein [4].

B3: mouse antibody A1E4F7D4 (antibody, V domains shown)
VH: QVQLQQSGAELAKPGTSVKMSCEASGYSFTTHWIHWMKQRPGQGLEWIGTIFPSNAYAVYNQKFRDRAIMTADRSSTTAYIQLTGLTSEDSAVYYCARASYFDYWGQGTTLTVSS
VL: DILLTQSPATLSVSPGERVTFSCRASQNIGTSIHWFQQRTTGSPRLLIKYASESISGIPSRFSGSGSGTDFTLHINSVESEDIAHYYCQHSHSWPFTFGSGTKLEIQ
notes: Mouse monoclonal IgG purified from hybridoma supernatant; also called Mouse A1E4F7D4
One may read the Kd as the equilibrium constant for the complex coming apart. A higher Kd goes with weaker binding. The term koff denotes the rate constant with which the complex falls apart. High values mean fast dissociation, low ones slow dissociation. Usually kon stands for the rate constant with which the complex forms. High values mean fast association, low ones slow association. In the test with human TROP2-his protein [5], B3 registered a Kd of 0.0554 nM, a koff of 4.7e-05 s⁻¹ and a kon of 849000 M⁻¹ s⁻¹. In test [6], this molecule gave a Kd of 0.0489 nM, a koff of 4.54e-05 s⁻¹ and a kon of 930000 M⁻¹ s⁻¹. Also, the IC50 in the test with human TROP2-his protein [7] is 0.0675 nM.

The values above are taken from patent US20240207432A1 (BIOSION, published 2024).
